Laboratory results taken from the supplement of paper PMC12042874.
± gives the uncertainty stated by the source.

test: amyloid nucleation score (Sup35N fusion, yeast selection) (log enrichment); library NNK1; higher = more nucleation; inactive = no reads after selection
Method in brief: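 Output and input plasmid inserts were sequenced by Illumina after psi-negative yeast carrying Sup35N fused to peptides of 20 random codons had been induced 24 hours with 100 μM copper sulfate and grown 7 days at 30°C on medium lacking adenine and uracil. The nucleation score is the DiMSum log enrichment of output over input reads, centred on the mode score of non-aggregating sequences. Sequences with under 100 input reads were excluded.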

GQWGVVHIQQGVQYCATIRG and GRCVNVSCHIRRPQVGTPRA are within error of each other in amyloid nucleation score: 0.331 ± 0.69 for the first, 1.07 ± 0.8 for the second.

GRDDSGWPSVVVWSPGADQA and GRDLPYMTRRNTLWSSKVVF are within error of each other in amyloid nucleation score: 0.243 ± 0.56 for the first, 0.206 ± 0.35 for the second.

Compared with GRFSVVAISHKQTFNFDWRT, GRGTRLYVRRQW is lower in amyloid nucleation score: 8.058 ± 0.072 for the first, 0.39 ± 0.28 for the second.

GRGVLSSPSALGRFSLTEGM and GRLMTFSINRRNVWKCDGSR are within error of each other in amyloid nucleation score: -0.444 ± 0.44 for the first, -0.207 ± 1.1 for the second.

GRLPLTKWASMTRVLMYLLR and GRMSRMILD are within error of each other in amyloid nucleation score: 0.652 ± 0.47 for the first, -0.407 ± 0.69 for the second.

GRMTVRNCGQDPLVFRTYQG and GRSYFVVGFLSELCEKWLTK are within error of each other in amyloid nucleation score: -1.13 ± 2.7 for the first, 0.046 ± 1 for the second.

Going from GSCDMKVVVKCHCEYGMKQD to GSCDYRFYNQLGEWNGYRMA, the amyloid nucleation score falls from 2.24 ± 0.13 to -0.348 ± 0.49.

GSERPNPV and GSFVGRR are within error of each other in amyloid nucleation score: 0.958 ± 0.63 for the first, 0.241 ± 0.46 for the second.

GSGNSHLLYRSSNRCLVLYR and GSGSVHSWHSLINSSDIFVT are within error of each other in amyloid nucleation score: -0.134 ± 0.32 for the first, -0.682 ± 0.81 for the second.

Going from GSIQDVIRLAIDVGRAALTE to GSLAW, the amyloid nucleation score falls from 0.684 ± 0.55 to -0.972 ± 0.94.

GSMSGTTDIPC and GSPVCTRRRPASLPPLRQVH are within error of each other in amyloid nucleation score: -0.158 ± 0.51 for the first, 0.208 ± 0.45 for the second.

First: GSRNNWKTPWSDNHGTLWRC
Second: GSRVVQRYVAVHACVHERVT
The amyloid nucleation score of the first is lower: -0.298 ± 0.47 for the first, 0.589 ± 0.4 for the second.

GSSDPHVLVN and GSSQWFRQVLYFRQSPGWGS are within error of each other in amyloid nucleation score: 0.341 ± 0.26 for the first, -0.33 ± 0.65 for the second.

GSSTVNL and GSTRYHAKMDPGWVRFT are within error of each other in amyloid nucleation score: -0.345 ± 1.7 for the first, -0.482 ± 1.7 for the second.

GTDRSLAVIFKARCWFWATR and GTKWVTLQRGGRLGMGRRSD are within error of each other in amyloid nucleation score: -1.14 ± 1.7 for the first, 0.562 ± 1.2 for the second.

Compared with GTLDDTGVTDDNFI, GTLHSKCRGICLDCVAIVIL is lower in amyloid nucleation score: 1.19 ± 0.4 for the first, -0.092 ± 0.39 for the second.

GVDMRYFGPYAGYADYSKSR and GVDRVRQCRARALDFSIGS are within error of each other in amyloid nucleation score: -0.846 ± 0.44 for the first, -0.372 ± 0.62 for the second.

Compared with GVFVKGWYWKWGMGDELQAA, GVGVCYFSC is higher in amyloid nucleation score: 0.182 ± 0.79 for the first, 2.2 ± 0.22 for the second.

GVKQEHVIPWQEVLGVITL and GVKTAYGNHAMWRDAVSRRG are within error of each other in amyloid nucleation score: 1.01 ± 0.84 for the first, 0.15 ± 0.57 for the second.

GVMPWLR and GVTHKDMSNDYFMGD are within error of each other in amyloid nucleation score: -0.123 ± 0.99 for the first, -0.285 ± 0.47 for the second.

Going from GVVITSPWGA to GVVSFNFDSLQF, the amyloid nucleation score falls from 1.18 ± 0.85 to -0.471 ± 0.65.

GWIRPVAKSRLWSFSPMEMI and GWKVCN are within error of each other in amyloid nucleation score: -0.768 ± 0.62 for the first, 0.362 ± 1.4 for the second.

GWLTYSPRSALIDHERRSLQ and GWQRSRVAVAPVVVTQSCGV are within error of each other in amyloid nucleation score: 0.879 ± 0.15 for the first, -0.671 ± 1.6 for the second.

Compared with GWSNSFA, GWVMLTCIRNAGVNLRPGSR is higher in amyloid nucleation score: 0.123 ± 0.44 for the first, 1.58 ± 0.53 for the second.

GWYEMASAHHMTDWYGW and GYGQCSGSYAGSGGT are within error of each other in amyloid nucleation score: -0.337 ± 0.51 for the first, 0.715 ± 0.57 for the second.

GYMSRVTLVVCTMMIRRNGD and GYSYFPNYHVFRVHE are within error of each other in amyloid nucleation score: 0.906 ± 0.24 for the first, 1.27 ± 0.54 for the second.

GYTRGDDSGAVHSLSWVFAG and HAIGTQMVTLGLRSISFSWN are within error of each other in amyloid nucleation score: -0.361 ± 1.7 for the first, 1.19 ± 0.67 for the second.

First: HAVSDFIPG
Second: HCGGNSRSVN
The amyloid nucleation score of the first is higher: 0.69 ± 0.41 for the first, -1.11 ± 0.83 for the second.

Going from HCRFWRTFDGSNGRNIENSD to HCYGIVEFSSSCCEFFRHGV, the amyloid nucleation score rises from 0.986 ± 1.1 to 6.36 ± 0.092.

HCYHGRGADR and HDKYTLIGPRH are within error of each other in amyloid nucleation score: 0.181 ± 0.74 for the first, -1.27 ± 1.2 for the second.

HDTDAKVQILNA and HEGMLPIDVLRHSRPRQPFV are within error of each other in amyloid nucleation score: 0.626 ± 0.69 for the first, -0.686 ± 0.83 for the second.

HEKDWLTSVCFISELSTFNN and HESGRRAIYS are within error of each other in amyloid nucleation score: 0.709 ± 0.65 for the first, -0.019 ± 0.29 for the second.

Going from HFAGCNSIDLQCNIRCKNIR to HFGDGILLI, the amyloid nucleation score falls from 5.469 ± 0.048 to -1.21 ± 1.7.

Compared with HFRVSDKDL, HFTCRTLITGSYSVTTLNVS is higher in amyloid nucleation score: 1.2 ± 0.38 for the first, 5.23 ± 0.061 for the second.

HFYSGECVFRGACRYQRRGH and HGAVLCC are within error of each other in amyloid nucleation score: 0.402 ± 1.4 for the first, 0.305 ± 1.4 for the second.

HGKFRHLSCTASSNEVEGNN and HGNCWSPTRAVRQYGVNAPM are within error of each other in amyloid nucleation score: 1.17 ± 0.58 for the first, 0.81 ± 0.36 for the second.

First: HHHLNYTINIRQSYFVMCGG
Second: HHLAKCRTLKLYLLWLQRIL
The amyloid nucleation score of the first is higher: 5 ± 0.071 for the first, 0.471 ± 0.54 for the second.

HHVWGFRSMLDSLHRSDCIQ and HIENNSLKSDIVGRRGVRLS are within error of each other in amyloid nucleation score: -0.989 ± 2.7 for the first, -0.549 ± 0.64 for the second.

HIIQNLV and HIKVHKFVGENWETFSRADM are within error of each other in amyloid nucleation score: 0.25 ± 0.77 for the first, -0.026 ± 1.7 for the second.

Compared with HIRCHVRTGEAARHRQVAQY, HLGTTNMNVFNVG is higher in amyloid nucleation score: 0.136 ± 0.39 for the first, 1.79 ± 0.082 for the second.

Going from HLILRTLWYKYLREKFSE to HLINVQ, the amyloid nucleation score rises from -0.286 ± 0.3 to 0.632 ± 0.53.

HLPTKFLGVPNKLAYSTAPV and HLRRVMYLFAANCGPRPAND are within error of each other in amyloid nucleation score: -0.401 ± 0.42 for the first, -0.69 ± 0.96 for the second.

HLSLPNVPVALWKRSRPVTM and HLSMFDCVYSF are the same in amyloid nucleation score: 1.26 ± 0.85 for the first, 1.26 ± 0.9 for the second.

First: HLWFE
Second: HLYLFSGFRAVSESEVRGAK
The amyloid nucleation score of the first is lower: -0.146 ± 0.43 for the first, 2.6 ± 0.22 for the second.

Going from HMGVRMNHFFTSDLSVVMWF to HMLASNSRWNTAKGINWGFH, the amyloid nucleation score falls from 3.59 ± 0.12 to 0.758 ± 0.7.

HMRYWLLQYGVILAQG and HNFEFFMGQGMIFWCRLTEN are within error of each other in amyloid nucleation score: 0.71 ± 0.42 for the first, 1.24 ± 0.56 for the second.

First: HNGRVFVMRWLYGVLGECG
Second: HNLYMWVFCCCQYRMNFSWS
The amyloid nucleation score of the first is lower: -1.31 ± 1.1 for the first, 3.49 ± 0.11 for the second.

First: HNQDSCIFGQYSDNEVNASV
Second: HNSLWGYFFMF
The amyloid nucleation score of the first is lower: -1.47 ± 1.6 for the first, 3.19 ± 0.12 for the second.

HNVLRSHTSRYRYVM and HPALKWLCPGIERLCLAWSG are within error of each other in amyloid nucleation score: 0.226 ± 0.7 for the first, 0.818 ± 0.61 for the second.

HQFSVHIPCCYSVPGNLYGW and HRGTDLSLRSWVDWLHTLRG are within error of each other in amyloid nucleation score: 0.888 ± 0.73 for the first, 0.67 ± 0.57 for the second.

Compared with HRMGPQVKHIHNIGESKQSE, HSCYLANCLSRVQGSKRDTE is lower in amyloid nucleation score: 0.822 ± 0.88 for the first, -0.911 ± 0.54 for the second.

Going from HSFSFCCSSYSCNLVGIELN to HSGNTLIQMCVI, the amyloid nucleation score falls from 7.599 ± 0.043 to -0.083 ± 0.61.

HSHRVIS and HSKGYMARHDRAYGDSERVV are within error of each other in amyloid nucleation score: 0.828 ± 0.51 for the first, 0.303 ± 0.77 for the second.

HSNMVNS and HSSAEIMPGHISGTWGLCDK are within error of each other in amyloid nucleation score: -0.73 ± 0.33 for the first, -0.62 ± 0.87 for the second.

Compared with HSSSSHGEKCGYVGNSHPSS, HSVFVMVCSSCMVG is higher in amyloid nucleation score: 0.691 ± 0.92 for the first, 8.892 ± 0.068 for the second.

HSYYGHPHTCFAMKEEVHVR and HTCGIDGLNKRMT are within error of each other in amyloid nucleation score: 0.035 ± 0.77 for the first, -0.791 ± 1.6 for the second.

HTEYRKYRVCTFLK and HTPLNRC are within error of each other in amyloid nucleation score: 0.826 ± 0.4 for the first, -0.469 ± 1.4 for the second.

Going from HTVNLAPRNPDPPS to HVGRHTTTGHAGFCNCGNPN, the amyloid nucleation score rises from 0.259 ± 0.77 to 3.46 ± 0.17.

HVHWPLLNNAYAS and HVLKGGRAAFVELRGKSHGL are within error of each other in amyloid nucleation score: 0.867 ± 0.93 for the first, -0.081 ± 0.96 for the second.

First: HVQLELTSCKEGGGCRS
Second: HVSLVHLRYCRICSLLSMWG
The amyloid nucleation score of the first is lower: 0.379 ± 0.78 for the first, 2.77 ± 0.12 for the second.

In the case of HVWRDGSE, the amyloid nucleation score is reported as 1.82 ± 0.54.

In the case of GRMAMWYGTPKGGCCHKSLY, the amyloid nucleation score is reported as “inactive”.
In the case of GSTQPCRNTFLLFLPALTIP, the amyloid nucleation score is reported as “inactive”.
In the case of GSVRRKRHGHLDV, the amyloid nucleation score is reported as “inactive”.
With GTFAWGHRFYVIAAYFILYD the amyloid nucleation score was “inactive”.
In the case of HIAHTEPGAIWV, the amyloid nucleation score is reported as “inactive”.
In the case of HSSWEYSSYGVPSNMEKDWV, the amyloid nucleation score is reported as “inactive”.
In the case of HTLDSISGSCGPLIAIVDFQ, the amyloid nucleation score is reported as “inactive”.
